Results as given in patent US20020004485A1.
Square brackets hold non-standard residues; d marks the D form. Ends that are not written are not given here. * marks the point of attachment. Benzoyl(4-OMe) = COc1ccc(C(=O)*)cc1; d2Thi = N[C@H](Cc1cccs1)C(=O)O

B1: SQW-2 (peptide)
peptide: {Benzoyl(4-OMe)}-RRI[dR]P[dK][dL]-NH2
SMILES: CC[C@H](C)[C@H](NC(=O)[C@H](CCCNC(=N)N)NC(=O)[C@H](CCCNC(=N)N)NC(=O)c1ccc(OC)cc1)C(=O)N[C@H](CCCNC(=N)N)C(=O)N1CCC[C@H]1C(=O)N[C@H](CCCCN)C(=O)N[C@H](CC(C)C)C(N)=O
B2: SQW-3 (peptide)
peptide: {Benzoyl(4-OMe)}-R[dR]I[dR]P[dK][dL]-NH2
SMILES: CC[C@H](C)[C@H](NC(=O)[C@@H](CCCNC(=N)N)NC(=O)[C@H](CCCNC(=N)N)NC(=O)c1ccc(OC)cc1)C(=O)N[C@H](CCCNC(=N)N)C(=O)N1CCC[C@H]1C(=O)N[C@H](CCCCN)C(=O)N[C@H](CC(C)C)C(N)=O
B3: SQW-4 (peptide)
peptide: {Benzoyl(4-OMe)}-[dR][dR]I[dR]P[dK][dL]-NH2
SMILES: CC[C@H](C)[C@H](NC(=O)[C@@H](CCCNC(=N)N)NC(=O)[C@@H](CCCNC(=N)N)NC(=O)c1ccc(OC)cc1)C(=O)N[C@H](CCCNC(=N)N)C(=O)N1CCC[C@H]1C(=O)N[C@H](CCCCN)C(=O)N[C@H](CC(C)C)C(N)=O
B4: human CRH (peptide, UniProt P06850 154-194, looked up)
peptide: SEEPPISLDLTFHLLREVLEMARAEQLAQQAHSNRKLMEII
B5: sauvagine (peptide, UniProt P01144 1-40, looked up)
peptide: QGPPISIDLSLELLRKMIEIEKQEKEKQQAANNRLLLDTI
B6: xenopsin (peptide, UniProt P07198 74-81, looked up)
peptide: QGKRPWIL
modifications: ends and bridges not checked
B7: S-167 (peptide)
peptide: {Benzoyl(4-OMe)}-AKLL[d2Thi]I[dL]-NH2
SMILES: CC[C@H](C)[C@H](NC(=O)[C@@H](Cc1cccs1)NC(=O)[C@H](CC(C)C)NC(=O)[C@H](CC(C)C)NC(=O)[C@H](CCCCN)NC(=O)[C@H](C)NC(=O)c1ccc(OC)cc1)C(=O)N[C@H](CC(C)C)C(N)=O
B8: S-166 (peptide)
peptide: {Benzoyl(4-OMe)}-RALL[d2Thi]I[dL]-NH2
SMILES: CC[C@H](C)[C@H](NC(=O)[C@@H](Cc1cccs1)NC(=O)[C@H](CC(C)C)NC(=O)[C@H](CC(C)C)NC(=O)[C@H](C)NC(=O)[C@H](CCCNC(=N)N)NC(=O)c1ccc(OC)cc1)C(=O)N[C@H](CC(C)C)C(N)=O
B9: S-160 (peptide)
peptide: {Benzoyl(4-OMe)}-RKAL[d2Thi]I[dL]-NH2
SMILES: CC[C@H](C)[C@H](NC(=O)[C@@H](Cc1cccs1)NC(=O)[C@H](CC(C)C)NC(=O)[C@H](C)NC(=O)[C@H](CCCCN)NC(=O)[C@H](CCCNC(=N)N)NC(=O)c1ccc(OC)cc1)C(=O)N[C@H](CC(C)C)C(N)=O
B10: S-165 (peptide)
peptide: {Benzoyl(4-OMe)}-RKLA[d2Thi]I[dL]-NH2
SMILES: CC[C@H](C)[C@H](NC(=O)[C@@H](Cc1cccs1)NC(=O)[C@H](C)NC(=O)[C@H](CC(C)C)NC(=O)[C@H](CCCCN)NC(=O)[C@H](CCCNC(=N)N)NC(=O)c1ccc(OC)cc1)C(=O)N[C@H](CC(C)C)C(N)=O
B11: S-164 (peptide)
peptide: {Benzoyl(4-OMe)}-RKLL[dA]I[dL]-NH2
SMILES: CC[C@H](C)[C@H](NC(=O)[C@@H](C)NC(=O)[C@H](CC(C)C)NC(=O)[C@H](CC(C)C)NC(=O)[C@H](CCCCN)NC(=O)[C@H](CCCNC(=N)N)NC(=O)c1ccc(OC)cc1)C(=O)N[C@H](CC(C)C)C(N)=O

The binders below were run against MC receptor endogenous to Xenopus laevis melanophores (Xenopus laevis) (assay: cell-based or functional assay).
For B1, the MCR IC50 nM: antagonism of α-MSH (600 pM) darkening of frog melanophores was 114 nM. With B2 the MCR IC50 nM: antagonism of α-MSH (600 pM) darkening of frog melanophores was 156 nM. B3 gave an MCR IC50 nM: antagonism of α-MSH (600 pM) darkening of frog melanophores of 17 nM. With B4 the IC50 in the frog MCR assay was 10000 nM. For B5, the IC50 in the frog MCR assay was greater than 10000 nM. In the case of B6, the IC50 in the frog MCR assay is reported as greater than 10000 nM. Work on B7 yielded an MCR Antagonism IC50 nM In Xenopus of 1200 nM. For B8, the MCR Antagonism IC50 nM In Xenopus was 1200 nM. For B9, the MCR Antagonism IC50 nM In Xenopus was 197 nM. Binder B10 has an MCR Antagonism IC50 nM In Xenopus of 282 nM. In the case of B11, the MCR Antagonism IC50 nM In Xenopus is reported as 26 nM.
